Assay: soluble on expression in E. coli; label from the status in PepcDB or PDB records

Sequence | soluble on expression in E. coli
MDAKVAFSPHSDANGRLDEIGADIDTAQSSVLFSLAFLGQMTRGAIGPALGRALERPEVHVMGIADAEVRAGNLGLNVLTPDNRRRVVRAAALTGNVPPPFLTEPSGLAGVDGNQRGTRMHHKFVVLDFDKPTARVYLGSYNFSNPADDENGENLVVVRDRTVATSYMIEALRMYDHYVFRVLEHHHHHH | soluble
MQFNYDVIVVGAGHAGCEAAAAAAKLGSQVLLITPDMNKIAQMSCNPAVGGIAKGQIVREIDALGGRMGIVTDATAIQFRMLNRSKGPAMWSPRAQSDRMRFMEAWRDIVEHEPNLYMWQDSVRCLSIRQGAVAGVVTALGVEFQARTVVLTTGTFLGGVMHFGERMIEGGRIAEPAFHGITEQLRDLGFRTDRMKTGTPARIDGRSIDFSLTTEQSGEEDHHRFSYMDTPRRVLRQRSCYALYTNPECHEILSKGLDRSPLYNGQIQSIGPRYCPSIETKIVTFADKEMHQLFLEPEGETSNEFYLNGFSSSLPLEIQLEALKAIPALRHVHIYRPGYAIEYDFFDPTQLRHTLETKPVKGLFFAGQINGTTGYEEAAGQGLIAGINAHLHCHGAGEFTLGRDEAYIGVLIDDLVSKGVDEPYRMFTSRAEYRILLRQDDADMRLTPKAEAIGLADSRRSELLREKQVFRDKLIDFTHKFSLKPDLINPHLESAGHLPLKQGIKLYDLLLRPQIGMNEVCSMVPSLQRIVEEIPASRREEIVEAAEILIKYDGYIKRERALADKINRLESIRLPQHVDYMQMQSLSTEARQKLTSIRPETIAQASRIPGVSPHDVSILLVLCGR | not soluble
MSLDSYRTARLMQEGVTYPVIVRPHNQILENRINRIIRETAEELLPSGRYRTMNIITAASEYETTVNKNEILSIRFENYYYPEMMASGITVVRAVTLNLVTGRRYRLKDLFIPGIDYEDYLNRLIERQIEERDIPLINDFPGITGNEVFYLTEGELVIVYQRYELTPGYYGVLEFEIPYEELQPLIDETSPIYMIAQNSEGHHHHHH | soluble
MGHHHHHHGGHMSLPKQIDHEKRRKQIAEATWRVILERGMEGASARNIAKEAGLSLGALRHYFSTQDELLAFAMKLVQEKVTDRIKDIAVRDLLPKEKVLQILLEMVPTNEETIREMEVWFAFTAYARHKKDMFDASHDGIFSGMRNLIAYLDESDLLKQNADKDIEAERLYALVDGLALHAMLDPVRVNKDRIKRVIMQHVESICVEDTRETQKRHPEGGS | soluble
VFIDESKEHLQTCNEKLLLLEKDPTDLQLVHDIFRAAHTLKGMSATMGYTDLAHLTHLLENVLDAIRNGDMEVTSDWLDILFEALDHLETMVQSIIDGGDGKRDISEVSAKLDVNGAHAESAASAEPAEAQSSASDWEYDEFERTVIQEAEEQGFKRYEIKISLNENCMLKAVRVYMVFEKLNEVGEVAKTIPSAEVLETEDFGTDFQVCFLTHQSAEDIEQLINGVSEIEHVEVIQGAPLTSAEKPEESKQEDSPAAAVPANEEKQKQPAKNDEQAKHSAGGSKTIRVNIDRLDSLMNLFEELVIDRGRLEQIAKELEHNELTETVERMTRISGDLQSIILNMRMVPVETVFNRFPRMIRQLQKELNKKIELSIIGAETELDRTVIDEIGDPLVHLIRNSIDHGIEAPETRLQKGKPESGKVVLKAYHSGNHVFIEVEDDGAGLNRKKILEKPLERVITEKEAETLEDNQIYELIFAPGFSTADQISDISGRGVGLDVVKNKLESLGGSVSVKSAEGQGSLFSIQLPLTLSIISVLLIKLEEETFAIPISSIIETAVIDRKDILQTHDREVIDFRGHIVPVVYLKEEFKIEDTRKDAEQLHIIVVKKGDKPTAFVVDSFIGQQEVVLKSLGDYLTNVFAISGATILGDGEVALIID | not soluble
SNAMVEAIIFDMDGVLFDTEKYYYDRRASFLGQKGISIDHLPPSFFIGGNTKQVWENILRDEYDKWDVSTLQEEYNTYKQNNPLPYKELIFPDVLKVLNEVKSQGLEIGLASSSVKADIFRALEENRLQGFFDIVLSGEEFKESKPNPEIYLTALKQLNVQASRALIIEDSEKGIAAGVAADVEVWAIRDNEFGMDQSAAKGLLDSLTDVLDLI | soluble
MGSDKIHHHHHHMKLLWFAHRDIKHPKAGGAERTIYEVGKRLSKLNIGVNLVTVNPGNLLEYENVDGIIIYRIKGNIRTHLYVRKMIKKINPDVIIDDMGHAVPWFSPWFTDKRVIVFFRHLHAKSLPGQVNFFLAKIITLVEKLYPIIYKNNIFVTESDTSENDLIDLGIKKDRIVRIPPGVDLNLFHTGKKTDNVQLLYFGGLRKYKRPEYAITIYENLYKKIDNLKLIIVGDGILLNEIKDKVKGKNYNIVFTGKLEYDELAKIIRESWVNLHFSVTEGWGYSILEASASGTPSVAFKVPGVVDTIIDGYNGFLVNNINEFTDKILYIIKNEDKFILNSRKFAENFTWEKTADLWYKLLNGN | not soluble
MNIVLMGLPGAGKGTQAERIVEKYGIPHISTGDMFRAAMKEETPLGLEAKSYIDKGELVPDEVTIGIVRERLSKSDCERGFLLDGFPRTVAQAEALEEILEEMGRPIDYVINIQVDKEELMERLTGRRICSVCGTTYHLVFNPPKTPGICDKDGGELYQRADDNEETVTKRLEVNMKQTAPLLAFYDSKEVLVNVNGQQDIQDVFADVKVILGGLKQ | soluble
MNTMLNPHYQQIWQTVQLIPQGKVACYGQIADLAGLPGRARLVGKSLGKVPKDGWRGQRVPWFRVINSQGKISFPPGSENFDKQKHHLQDEQVVVIGSRIKLKEFQWKPDLSELLFSLEFLEHHHHHH | not soluble
MSLNKEFIMKFSLKSLLTIAAAASTLILAGCGEKAVDNNKVKIGVMAGAEAQVAEVAAKVAKEKYNLDVELVTFTDYVTPNAALDDGSIDANAFQHKPYLDKQIADRGYKLAIVGNTFVYPIAGYSKQIKSVDELQDGARIAVPNDPTNLGRSLLLLQQQGLLKLREDVGLLATVRDIVENPKKLEILELDAAQLPRSLDDVALSIINTTYASSINLTPEKDGIFVENKESPYVNILVAREANVNAENVQNFKKAYQTDEVAKAASEIFQGGAVKGWEGGSHHHHHH | soluble
MSLTQHTRNFSFKVLTINTHKGFTAFNKRFILPELRDAVRTVGADIVCLQEVMGAHEVHPLHIENWPDTTHYEFLADTMWSDFAYGRNAVYPEGHHGNAVLSRYPIEHYENRDVSVGGSEKRGVLYCRITPPMLNRPIHVMCVHLGLRESHRQAQLTMLAGWVNALPESEPVLVAGDFNDWRQKAGPPLNAAGLEEIFTRAHGRPARTFPVSMPLLRLDRIYVKNANASSPTALPLRNWRHLSDHAPLSAEIHLEGHHHHHH | soluble
MGSDKIHHHHHHMASISIRCPSCSATEGVVRNGKSTAGHQRYLCSHCRKTWQLQFTYTASQPGTHQKIIDMAMNGVGCRASARIMGVGLYTVLRHLKNSAESVTSRIQPGSDVIVCAEMDEHWGYVGAKSRQRWLFYAYDRIRRTVVAHVFGERTLATLERLLSLLSAFEVVVWMTDGCPLYESRLKGKLHVISKRYTQRIERHNLNLRQHLARLVRKSLSFSKSVELHDKAIGHYLNIKHYQ | not soluble
MATTLKPVDAVVVGFGWTGAILAKELTEAGLNVVALERGENRDTYPDGAYPNTLDELTYNTRGKLFQNLSKSTVSIRHGINDTALPYRQLSAFLPGDGVGGAGLHWSGVHFRIMPEELRLRSHYEERYGKKFIPEGMTIQDYGVSYEELEPHFDFAEKVFGTSGTAHTVKGQVVGKGNPFAADRSDDFPLPALRQVYSAQLFRKAAEELGLHPYDLPAANASGPWTNPYGVQMGPCNFCGFCSGYACYMYSKASPNLNILPALRQTPLFELRANCNVLKVNLDSDGRQATGVTYVDAQGREIVQPAKLVIISAFQFHNVRLLLLSGIGKPYDPRTGEGVVGKNFAYQNMATIKAFFDKDVHTNPFVGTGGGGVAVDDFNADNFDHGPLGFVGGSPMWVNQAGSKPIGGLAVPPGTPSWGSGWKQAVKDAYTHTVSMDAHGSNMTYRDNYLDLDPTYKDAYGQPLLRMTFDWKDNEIRMSRYVTEHMRKIAEAMNPKAISVSVKNFGDHFNTRVYQTTHLLGGAIMGSDPKTSVLNRYLQSWDVHNVFVMGASAFPQGTGYNPTGLVAALAYWSAKAIREQYLKNPGPLVQALEHHHHHH | not soluble
MGSDKIHHHHHHMERIPVIKTSDLSIGYILKGGQKKRVHDALDLNLYPGEVTCLLGLNGAGKSTLLRTLCGFQPPLGGEIELMGKPLNSYSQGNFSRLVGVVLTEKTNAGGITVYELVSLGRHPYTGFFGQLRQEDRRIIEESLAAAGIAHKAYNYVSELSDGERQKAMIAKALAQQCPIILLDEPTAFLDVTSRIETMVLLHTLAVEQQKAILLSTHDLDLAIQLGDCLWLQEKKRPMACGTPEDLIMGGAFETFFSKEGIVFDPNTGKLNTVAPAKLIGVAGDFMTSYWVGNALIRNGFKPSSVSEDYISVYCNAPDSLRIQFPAEEGTRIVGSVAEMISIIIHKS | not soluble
GSMAAAGNKSINAKLVLLGDVGAGKSSLVLRFVKDQFVEFQESTIGAAFFSQTLAVNDATVKFEIWDTAGQERYHSLAPMYYRGAAAAIIVFDVTNQASFERAKKWVQELQAQGNPNMVMALAGNKSDLLDARKVTAEDAQTYAQENGLFFMETSAKTATNVKEIFYEIARRLPRVQPTEN | soluble
MAPKSILITGANRGIGLGLLKQFIKNKDVQIIIGTCRDPSNATELNSIKDTRVHILQLDIDCDDSIRKLGAEVEKLVGEDGLTVLINNAGIFVPYDIDGEKSRSTLIRQLETNTISTVLITQELLPLLKRAAAKNRGEGYSINRSAIINISSTAGSITKIDASYNIPLVAYRMSKSALNSFGKSCSVDLAKYHILVTTFCPGWVKTDMGGANGKLEIDDATKTLSDNILILGDAHHGAYLNADLTVIPN | soluble
MRGSHHHHHHGMASMTGGQQMGRDLYDDDDKDRWIRTGGYQPTLWDFSTIQSFDSEYKEEKHLMRAAGMIDQVKMMLQEEVDSIRRLELIDDLRRLGISCHFEREIVEILNSKYYTNNEIDERDLYSTALRFRLLRQYDFSVSQEVFDCFKNAKGTDFKPSLVDDTRGLLQLYEASFLSAQGEETLRLARDFATKFLQKRVLVDKDINLLSSIERALELPTHWRVQMPNARSFIDAYKRRPDMNPTVLELAKLDFNMVQAQFQQELKEASRWWNSTGLVHELPFVRDRIVECYYWTTGVVERRQHGYERIMLTKINALVTTIDDVFDIYGTLEELQLFTTAIQRWDIESMKQLPPYMQICYLALFNFVNEMAYDTLRDKGFDSTPYLRKVWVGLIESYLIEAKWYYKGHKPSLEEYMKNSWISIGGIPILSHLFFRLTDSIEEEAAESMHKYHDIVRASCTILRLADDMGTSLDEVERGDVPKSVQCYMNEKNASEEEAREHVRSLIDQTWKMMNKEMMTSSFSKYFVEVSANLARMAQWIYQHESDGFGMQHSLVNKMLRDLLFHRYE | soluble
MTTQTTPAHIAMFSIAAHGHVNPSLEVIRELVARGHRVTYAIPPVFADKVAATGPRPVLYHSTLPGPDADPEAWGSTLLDNVEPFLNDAIQALPQLADAYADDIPDLVLHDITSYPARVLARRWGVPAVSLSPNLVAWKGYEEEVAEPMWREPRQTERGRAYYARFEAWLKENGITEHPDTFASHPPRSLVLIPKALQPHADRVDEDVYTFVGACQGDRAEEGGWQRPAGAEKVVLVSLGSAFTKQPAFYRECVRAFGNLPGWHLVLQIGRKVTPAELGELPDNVEVHDWVPQLAILRQADLFVTHAGAGGSQEGLATATPMIAVPQAVDQFGNADMLQGLGVARKLATEEATADLLRETALALVDDPEVARRLRRIQAEMAQEGGTRRAADLIEAELPARHERQEPVGDRPNVGDRPAGVRSDRQRSAL | soluble
MTLEIRPAVPADAEQILAFIIELADYERARHEVVTDVEGIRRSLFAEGSPTRALMCLSEGRPIGYAVYFYSYSTWLGRNGIYLEDLYVTPEYRGVGAGRRLLRELAREAVANDCGRLEWSVLDWNQPAIDFYRSIGALPQDEWVRYRLDGEALRKMAE | soluble
